Patent publication US20090087437A1 (Dana-Farber, published 2009)

Experiments:
Experiment in all cases: co-immunoprecipitation from cell lysates, western blot
Bcl-xL = molecular target: T1, Bcl-xL (UniProt Q07817 1-233)
T1 construct: also called multidomain antiapoptotic Bcl-xL protein

cIAP2 = molecular target: T2, cIAP2 (UniProt Q13489 1-604)
T2 construct: The list of antibodies in the same sentence prints 'cIAP', while the result names 'cIAP2'

cIAP1 = cIAP1 (UniProt Q13490 1-618)
XIAP = XIAP (UniProt P98170 1-497)
XIAP, sequence (P98170 whole entry): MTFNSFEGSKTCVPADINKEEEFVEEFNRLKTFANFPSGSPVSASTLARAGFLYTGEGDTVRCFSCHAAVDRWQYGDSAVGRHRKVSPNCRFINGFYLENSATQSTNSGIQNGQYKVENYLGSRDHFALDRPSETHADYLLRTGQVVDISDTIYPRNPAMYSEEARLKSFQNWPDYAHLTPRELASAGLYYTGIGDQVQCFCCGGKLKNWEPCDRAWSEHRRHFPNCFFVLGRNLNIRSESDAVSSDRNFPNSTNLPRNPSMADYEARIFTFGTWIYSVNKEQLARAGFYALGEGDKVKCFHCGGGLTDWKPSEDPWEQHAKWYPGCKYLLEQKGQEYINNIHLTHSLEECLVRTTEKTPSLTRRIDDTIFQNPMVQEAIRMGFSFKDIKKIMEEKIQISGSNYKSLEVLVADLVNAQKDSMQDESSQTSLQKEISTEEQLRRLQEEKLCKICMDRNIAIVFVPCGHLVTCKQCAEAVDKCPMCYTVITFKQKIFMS

Bcl-2 = molecular target: T3, Bcl-2 (UniProt P10415 1-239)
T3 construct: also called multidomain antiapoptotic Bcl-2 protein
T3 sequence (P10415 whole entry): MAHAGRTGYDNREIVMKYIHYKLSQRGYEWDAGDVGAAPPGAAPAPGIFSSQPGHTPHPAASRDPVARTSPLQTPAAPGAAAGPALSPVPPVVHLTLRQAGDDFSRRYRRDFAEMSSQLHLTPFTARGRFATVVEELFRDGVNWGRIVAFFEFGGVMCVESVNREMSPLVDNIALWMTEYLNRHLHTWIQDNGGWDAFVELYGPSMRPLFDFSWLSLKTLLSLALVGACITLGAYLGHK

Measured: binding result

cIAP1, sequence (Q13490 whole entry): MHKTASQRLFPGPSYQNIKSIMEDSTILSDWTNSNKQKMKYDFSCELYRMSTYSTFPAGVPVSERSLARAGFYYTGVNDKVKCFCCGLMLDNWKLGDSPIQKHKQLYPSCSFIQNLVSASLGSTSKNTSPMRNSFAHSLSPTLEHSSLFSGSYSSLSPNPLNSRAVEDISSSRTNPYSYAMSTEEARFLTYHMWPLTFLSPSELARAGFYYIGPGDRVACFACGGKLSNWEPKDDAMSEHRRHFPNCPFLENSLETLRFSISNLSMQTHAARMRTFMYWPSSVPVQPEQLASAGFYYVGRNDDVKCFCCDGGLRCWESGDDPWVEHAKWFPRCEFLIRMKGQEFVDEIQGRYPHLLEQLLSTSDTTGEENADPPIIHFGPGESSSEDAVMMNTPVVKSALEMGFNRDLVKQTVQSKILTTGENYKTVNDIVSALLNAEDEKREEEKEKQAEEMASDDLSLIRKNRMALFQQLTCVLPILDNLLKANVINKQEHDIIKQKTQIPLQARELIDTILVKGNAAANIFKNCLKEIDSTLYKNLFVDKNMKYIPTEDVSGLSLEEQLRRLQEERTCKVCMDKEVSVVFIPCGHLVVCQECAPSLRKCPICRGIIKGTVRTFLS
T2 sequence (Q13489 whole entry): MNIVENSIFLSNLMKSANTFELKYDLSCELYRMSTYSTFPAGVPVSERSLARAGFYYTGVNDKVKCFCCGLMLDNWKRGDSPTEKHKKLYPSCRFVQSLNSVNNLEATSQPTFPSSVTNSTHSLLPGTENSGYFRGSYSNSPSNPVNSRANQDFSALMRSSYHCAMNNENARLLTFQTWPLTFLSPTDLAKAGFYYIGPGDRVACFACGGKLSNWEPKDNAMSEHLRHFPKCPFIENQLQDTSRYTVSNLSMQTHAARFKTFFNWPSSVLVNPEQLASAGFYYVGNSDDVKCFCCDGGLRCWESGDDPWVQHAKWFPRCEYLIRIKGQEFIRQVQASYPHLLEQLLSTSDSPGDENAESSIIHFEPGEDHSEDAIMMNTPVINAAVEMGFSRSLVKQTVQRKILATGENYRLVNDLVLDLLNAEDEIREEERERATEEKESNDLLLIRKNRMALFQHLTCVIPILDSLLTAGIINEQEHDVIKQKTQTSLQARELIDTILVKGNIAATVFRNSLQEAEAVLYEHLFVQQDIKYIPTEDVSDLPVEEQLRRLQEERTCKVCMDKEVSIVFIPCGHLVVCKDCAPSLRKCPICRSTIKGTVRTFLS
T1 sequence (Q07817 whole entry): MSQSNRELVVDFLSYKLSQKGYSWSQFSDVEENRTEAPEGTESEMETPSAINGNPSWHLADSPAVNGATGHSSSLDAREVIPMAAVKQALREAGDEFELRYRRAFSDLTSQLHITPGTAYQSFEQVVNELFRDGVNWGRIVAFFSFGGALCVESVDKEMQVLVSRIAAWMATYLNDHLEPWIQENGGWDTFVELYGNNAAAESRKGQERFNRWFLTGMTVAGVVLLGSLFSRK

B1: MUC1 C-terminal transmembrane subunit (MUC1-C) (other, UniProt P15941 1098-1255, looked up)
chain: SVVVQLTLAFREGTINVHDVETQFNQYKTEAASRYNLTISDVSVSDVPFPFSAQSGAGVPGWGIALLVLVCVLVALAIVYLIALAVCQCRRKNYGQLDIFPARDTYHPMSEYPTYHTHGRYVPPSSTDRSPYEKVSAGNGGSSLSYTNPAVAATSANL
notes: Endogenous protein immunoprecipitated from MCF7 lysates with an anti-MUC1-C antibody
no binding: all assays above
